Experiment [1] deals with T1, human FAP on HT1080 cells (HT1080-huFAP, stable transfectants) (human, UniProt Q12884 1-760).
T1 sequence: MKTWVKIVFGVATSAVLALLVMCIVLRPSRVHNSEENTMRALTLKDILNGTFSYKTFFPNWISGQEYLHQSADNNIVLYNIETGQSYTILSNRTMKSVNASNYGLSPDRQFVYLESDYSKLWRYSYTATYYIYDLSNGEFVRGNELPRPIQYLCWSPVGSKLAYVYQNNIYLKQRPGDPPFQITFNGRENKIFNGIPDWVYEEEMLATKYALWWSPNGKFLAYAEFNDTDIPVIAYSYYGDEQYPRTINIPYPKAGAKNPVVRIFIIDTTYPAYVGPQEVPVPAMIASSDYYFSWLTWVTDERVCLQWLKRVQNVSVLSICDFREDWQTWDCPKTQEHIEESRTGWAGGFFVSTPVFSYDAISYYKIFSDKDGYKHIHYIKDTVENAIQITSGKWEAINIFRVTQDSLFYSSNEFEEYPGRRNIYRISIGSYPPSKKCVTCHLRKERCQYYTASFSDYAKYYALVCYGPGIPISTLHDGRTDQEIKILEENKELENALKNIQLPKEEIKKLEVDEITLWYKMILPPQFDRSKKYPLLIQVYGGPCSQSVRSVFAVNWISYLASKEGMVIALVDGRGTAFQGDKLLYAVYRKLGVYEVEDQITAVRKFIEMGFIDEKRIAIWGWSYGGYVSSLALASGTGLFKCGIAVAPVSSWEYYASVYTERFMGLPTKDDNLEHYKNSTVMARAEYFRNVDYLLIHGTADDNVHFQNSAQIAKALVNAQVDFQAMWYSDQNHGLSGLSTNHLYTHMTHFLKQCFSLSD
The experiment in a line: cell-based or functional assay.

For experiment [2], the target named is T1, human FAP on HT1080 cells …. Put plainly: cell-based or functional assay. The source holds these as a separate data set.
In experiment [3] the target is T2, recombinant human FAP (extracellular region aa 26-760; R&D systems) (human, UniProt Q12884 26-760).
T2 construct: also called rhFAP; recombinant FAP
T2 sequence: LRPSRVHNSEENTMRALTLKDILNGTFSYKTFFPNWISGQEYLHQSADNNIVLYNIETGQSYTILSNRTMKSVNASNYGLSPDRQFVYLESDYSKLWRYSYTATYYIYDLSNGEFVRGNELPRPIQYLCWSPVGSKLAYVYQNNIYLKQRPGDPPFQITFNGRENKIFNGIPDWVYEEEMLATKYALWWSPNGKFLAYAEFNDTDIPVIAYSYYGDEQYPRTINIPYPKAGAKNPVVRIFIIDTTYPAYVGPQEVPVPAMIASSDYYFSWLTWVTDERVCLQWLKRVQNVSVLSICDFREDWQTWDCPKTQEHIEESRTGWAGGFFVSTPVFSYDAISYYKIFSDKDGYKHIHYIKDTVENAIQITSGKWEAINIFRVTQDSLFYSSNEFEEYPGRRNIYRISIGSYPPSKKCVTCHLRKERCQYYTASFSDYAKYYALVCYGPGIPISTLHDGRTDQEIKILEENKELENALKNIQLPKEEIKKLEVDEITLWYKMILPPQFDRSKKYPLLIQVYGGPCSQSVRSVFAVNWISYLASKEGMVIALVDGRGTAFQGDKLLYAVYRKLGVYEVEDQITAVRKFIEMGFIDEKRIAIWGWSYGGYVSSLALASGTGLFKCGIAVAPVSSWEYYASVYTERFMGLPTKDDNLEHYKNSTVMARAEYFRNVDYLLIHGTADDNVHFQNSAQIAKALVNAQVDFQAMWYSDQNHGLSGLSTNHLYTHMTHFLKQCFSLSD
Put plainly: ELISA, rhFAP.

Experiment [4] has as its target T1, human FAP on HT1080 cells …. Put plainly: FACS, HT1080-huFAP cells. (Flow cytometry measures light scatter and fluorescence of single cells or particles in a stream.)
Experiment [5] addresses T3, mouse FAP on HT1080 cells (HT1080-moFAP) (mouse, UniProt P97321 1-761).
T3 construct: Murine FAP on stably transfected HT1080 cells; also called murine FAP
T3 sequence: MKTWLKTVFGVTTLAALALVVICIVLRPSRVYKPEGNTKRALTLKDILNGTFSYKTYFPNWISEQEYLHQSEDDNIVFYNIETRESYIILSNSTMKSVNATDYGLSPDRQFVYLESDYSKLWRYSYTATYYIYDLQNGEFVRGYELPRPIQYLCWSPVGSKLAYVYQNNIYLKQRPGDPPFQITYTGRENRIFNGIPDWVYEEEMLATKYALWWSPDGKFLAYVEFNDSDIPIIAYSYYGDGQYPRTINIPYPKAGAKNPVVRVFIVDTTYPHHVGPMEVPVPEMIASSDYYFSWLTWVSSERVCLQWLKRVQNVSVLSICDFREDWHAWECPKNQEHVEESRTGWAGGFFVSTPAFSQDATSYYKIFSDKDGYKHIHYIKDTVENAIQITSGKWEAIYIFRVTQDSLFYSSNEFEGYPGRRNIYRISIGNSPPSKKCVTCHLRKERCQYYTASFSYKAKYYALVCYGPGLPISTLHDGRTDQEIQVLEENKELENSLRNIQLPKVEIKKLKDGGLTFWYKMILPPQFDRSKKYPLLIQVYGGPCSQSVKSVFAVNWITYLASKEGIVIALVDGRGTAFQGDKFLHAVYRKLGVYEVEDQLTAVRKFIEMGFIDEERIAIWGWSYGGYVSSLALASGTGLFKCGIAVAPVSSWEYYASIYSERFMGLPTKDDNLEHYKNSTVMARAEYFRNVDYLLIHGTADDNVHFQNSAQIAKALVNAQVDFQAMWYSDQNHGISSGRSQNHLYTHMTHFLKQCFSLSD
The experiment in a line: FACS, HT1080-moFAP cells.

Experiment [6] concerns the target T2, recombinant human FAP (extracellular …). Put plainly: ELISA, recombinant FAP coated.
The target is the same in experiment [7]. The experiment in a line: QCM (Attana A100), rhFAP; KD1.
Experiment [8] shares this target. Put plainly: QCM (Attana A100), rhFAP; KD2.
Experiment [9] concerns the target T1, human FAP on HT1080 cells …. Put plainly: flow cytometry, HT1080-huFAP cells.
Experiment [10] deals with T3, mouse FAP on HT1080 cells (HT1080-moFAP). The experiment in a line: flow cytometry, HT1080-moFAP cells.

B1: ADC-558 (HPS-157-039-005), anti-FAP hu36:TAM558 ADC (antibody, V domains shown)
VH: QVQLVQSGAEVKKPGASVKVSCKASGYTFTENIIHWVRQAPGQGLEWMGWFHPGSGSIKYNEKFKDRVTMTADTSTSTVYMELSSLRSEDTAVYYCARHGGTGRGAMDYWGQGTLVTVSS
VL: DIQMTQSPSSLSASVGDRVTITCRASKSVSTSAYSYMHWYQQKPGKAPKLLIYLASNLESGVPSRFSGSGSGTDFTLTISSLQPEDFATYYCQHSRELPYTFGQGTKLEIKR
modifications: cytolysin-linker TAM558 on cysteine residues (not site-specific); cytolysin-linker TAM558 (vcPABA linker in R4 with 3 ethylene glycol spacer) on cysteine residues (not site-specific), DAR 3.92 for the whole antibody
With B1, the “specificity ratio between FAP(+) and FAP(-) HT1080 cells (cytotoxic activity)” value in experiment [1] amounted to 500. Also, the “IC50 in Proliferation Arrest Assay (nM), HT1080-FAP” value in [2] is 0.96 nM.

B2: humanized anti-FAP IgG1 hu36 (hu36-IgG1) (antibody, V domains shown)
VH: QVQLVQSGAEVKKPGASVKVSCKASGYTFTENIIHWVRQAPGQGLEWMGWFHPGSGSIKYNEKFKDRVTMTADTSTSTVYMELSSLRSEDTAVYYCARHGGTGRGAMDYWGQGTLVTVSS
VL: DIQMTQSPSSLSASVGDRVTITCRASKSVSTSAYSYMHWYQQKPGKAPKLLIYLASNLESGVPSRFSGSGSGTDFTLTISSLQPEDFATYYCQHSRELPYTFGQGTKLEIKR
notes: Full-length humanized IgG1/kappa, gamma1* = deficient for ADCC and CDC; made in CHO cells; also called anti-hu/moFAP hu36; naked anti-FAP hu36-IgG1
On to B2, for which the EC50 – broadly, the concentration needed to bring the measured effect to its halfway point – in [3] was 3 nM; in [4] it was 0.3 nM; in [5], 0.2 nM; in experiment [6], around 5 nM; in [9], 0.33 nM; in [10] it was 0.25 nM. The Kd (commonly the constant that tells how readily two partners part at equilibrium) in [7] is 218 nM; in experiment [8] it was 0.4 nM.

B3: Anti-FAP hu36-IgG1-recNgA immunotoxin conjugate HPS131-001-1 (antibody)
heavy: QVQLVQSGAEVKKPGASVKVSCKASGYTFTENIIHWVRQAPGQGLEWMGWFHPGSGSIKYNEKFKDRVTMTADTSTSTVYMELSSLRSEDTAVYYCARHGGTGRGAMDYWGQGTLVTVSSASTKGPSVFPLAPSSKSTSGGTAALGCLVKDYFPEPVTVSWNSGALTSGVHTFPAVLQSSGLYSLSSVVTVPSSSLGTQTYICNVNHKPSNTKVDKKVEPKSCDKTHTCPPCPAPPVAGPSVFLFPPKPKDTLMISRTPEVTCVVVDVSHEDPEVKFNWYVDGVEVHNAKTKPREEQYNSTYRVVSVLTVLHQDWLNGKEYKCKVSNKGLPSSIEKTISKAKGQPREPQVYTLPPSRDELTKNQVSLTCLVKGFYPSDIAVEWESNGQPENNYKTTPPVLDSDGSFFLYSKLTVDKSRWQQGNVFSCSVMHEALHNHYTQKSLSLSPGK
light: DIQMTQSPSSLSASVGDRVTITCRASKSVSTSAYSYMHWYQQKPGKAPKLLIYLASNLESGVPSRFSGSGSGTDFTLTISSLQPEDFATYYCQHSRELPYTFGQGTKLEIKRTVAAPSVFIFPPSDEQLKSGTASVVCLLNNFYPREAKVQWKVDNALQSGNSQESVTEQDSKDSTYSLSSTLTLSKADYEKHKVYACEVTHQGLSSPVTKSFNRGEC
chain: MIDYPSVSFNLDGAKSATYRDFLSNLRKTVATGTYEVNGLPVLRRESEVQVKSRFVLVPLTNYNGNTVTLAVDVTNLYVVAFSGNANSYFFKDATEVQKSNLFVGTKQNTLSFTGNYDNLETAANTRRESIELGPSPLDGAITSLYHGDSVARSLLVVIQMVSEAARFRYIEQEVRRSLQQATSFTPNALMLSMENNWSSMSLEIQQAGNNVSPFFGTVQLLNYDHTHRLVDNFEELYKITGIAILLFRCSSPSND
modifications: single cysteine in a hindered disulphide bond to the SMPT-derivatised antibody; derivatised with SMPT on amino groups; disulphide link to recNgA
In the case of B3, in experiment [1], the “cytotoxicity on HT1080-FAP cells (cell viability), IC50” value worked out at 5 µM.

The values are drawn from US20170007716A1 (ONCOMATRYX BIOPHARMA S L, published 2017).
